Data taken from US8476054B2, “Thrombin-like enzyme of Agkistrodon acutus” (Konruns Pharmaceutical Co., Ltd., priority 2008, dated 2013).
Entries after “also recorded” stand apart in the source; their conditions may differ.

Columns and labels:
[1] = system: hemocoagulase of Agkistrodon acutus; assay: effect of PMSF on the agglutination time of the hemocoagulase; format: biochemical
Method: (§1) 1% bovine fibrinogen (Sigma Company) solution was prepared with physiological saline.
(§2) The operational steps of the experiment were as follows:
(§3) (1) 2 ml 1% bovine fibrinogen solution was kept at constant temperature of 37° C. for 5 min;
(§4) (2) 3 tubes were respectively marked with 1 #, 2 #, 3 #, then 200 μl hemocoagulase solution (5 u/ml) diluted one time with distilled water was added into each of 3 tubes;
(§5) (3) 10 μl distilled water was added into tube 1#, 10 μl isopropanol was added into tube 2#, and 10 μl PMSF was added into tube 3#, and the tubes were kept at constant temperature of 37° C. in water bath for 5 min;
(§6) (4) Observations of the agglutination experiments were carried out separately in the order of the numbering of the above tubes. 200 μl 1% bovine fibrinogen solution at constant temperature was added into each of the tubes respectively, followed by counting time immediately and shaking the tube gently; then the tube was kept to stand in water bath of 37° C. The agglutination reaction was observed. When the solution was completely coagulated, time-counting was finished.

[2] = system: bovine fibrinogen; assay: enzymatic activity assay (bovine fibrinogen assay or normal human plasma assay); format: biochemical; conditions: hemocoagulase of Example 2 further purified by HPLC
Method: The above dialyzed enzyme solution was loaded on a pre-equilibrated DEAE-Sepharose Fast Flow anion exchange chromatography column, and the column was eluted with 0.01M, pH7.4 PBS. Then, the stepwise elution was conducted with 0.01M, pH7.4 PBS containing 0.02M, 0.04M, 0.06M, 1.0M NaCl respectively, and the second eluting peak of 0.06M NaC1 eluent was collected to obtain 1,050 ml of eluent. […] The 1,050 ml eluent was ultra-filtrated to 135 ml by Millipore Pellicon 2 tangential flow ultra-filter (0.1M^2 cut off 5 k membrane). The 135 ml ultra-filtrated solution was poured into a dialysis bag and dialyzed against deionized water for 24 hours, and the deionized water was changed 3 times during the dialysis. After dialysis, the volume of the enzyme solution is 159 ml, and the determined content of the total protein in the solution is 240 mg, the determined specific activity of the enzyme is 195 u/mg protein and a final yield of 0.8%. […]
1 ml 1.0% bovine fibrinogen (Sigma company) prepared with physiological saline was added to a tube, kept at 37±0.5° C. in water bath for 3 min, followed by adding 1 ml 37±0.5° C. preheated enzymatic solution to be determined was added into the tube while counting time immediately; if white flocs appeared in the bovine fibrinogen solution by shaking it within 120±30 seconds, the activity unit of the enzymatic solution is determined to be 1 u/ml. […]

[3] = system: bovine fibrinogen; assay: agglutination experiment, time to complete coagulation of bovine fibrinogen solution; format: biochemical; conditions: 200 μl hemocoagulase solution (5 u/ml), 200 μl 1% bovine fibrinogen, 37° C.
Method: as §1, §2, §3, §4, §5, §6

[4] = system: human fibrinogen; assay: hydrolyzing human fibrinogen with the hemocoagulase, SDS-PAGE; format: biochemical; conditions: for band of alpha subunit of human fibrinogen: hemocoagulase 1 unit, 37° C.
Method: A 4 mg/ml human fibrinogen solution was prepared with 50 mM Tris-HCl buffer solution(pH 7.4). 0.5 ml human fibrinogen solution were respectively added into each of 5 tubes; 1 activity unit of the purified hemocoagulase was separately added into each of 4 tubes according to 4 different time intervals of heat preservation time for hydrolyzing, and the tubes were kept at 37° C. in water bath for 4 h, 2 h, 1 h and 0.5 h, respectively; after that, SDS-PAGE was carried out immediately to observe the hydrolyzing degree of the human fibrinogen. Meanwhile, another tube containing 0.5 ml of the human fibrinogen solution was kept at 37° C. in water bath for 4 h as a control.

[5] = isoelectric focusing electrophoresis analysis; format: physicochemical
Method: The above dialyzed enzyme solution was loaded on a pre-equilibrated DEAE-Sepharose Fast Flow anion exchange chromatography column, and the column was eluted with 0.01M, pH7.4 PBS. Then, the stepwise elution was conducted with 0.01M, pH7.4 PBS containing 0.02M, 0.04M, 0.06M, 1.0M NaCl respectively, and the second eluting peak of 0.06M NaC1 eluent was collected to obtain 1,050 ml of eluent. […] The 1,050 ml eluent was ultra-filtrated to 135 ml by Millipore Pellicon 2 tangential flow ultra-filter (0.1M^2 cut off 5 k membrane). The 135 ml ultra-filtrated solution was poured into a dialysis bag and dialyzed against deionized water for 24 hours, and the deionized water was changed 3 times during the dialysis. After dialysis, the volume of the enzyme solution is 159 ml, and the determined content of the total protein in the solution is 240 mg, the determined specific activity of the enzyme is 195 u/mg protein and a final yield of 0.8%. The protein has a HPLC purity of 98.2%, and two protein bands were shown by reduced SDS-PAGE with the molecular weight of about 15 kDa and 14.5 kDa, respectively. The enzyme has an isoelectric point(pI) of 5.5 by isoelectric focusing electrophoresis analysis.

Molecule | Agglutination time ([1]; 10 μl PMSF (4 mg/ml in isopropanol), 200 μl hemocoagulase solution (5 u/ml), 200 μl 1% bovine fibrinogen, 37° C.) | inhibition of the activity of the hemocoagulase ([1]; 100 ppm PMSF) | enzyme activity of the solution [2] | Agglutination time ([3]; 10 μl distilled water) | Agglutination time ([3]; 10 μl isopropanol) | hydrolysis of the alpha chain (alpha subunit) of human fibrinogen [4] | band of alpha subunit of human fibrinogen ([4]; treated for 0.5 h and 1 h) | band of alpha subunit of human fibrinogen ([4]; treated for 2 h and 4 h) | isoelectric point (pI) [5]
O=S(=O)(F)Cc1ccccc1 [PMSF, Phenylmethanesulfonyl fluoride] | > 600 s | completely inhibits |  |  |  |  |  |  | 
hemocoagulase (protein) chain 1: DCSSGWSSYEGHCYKVFKQSKTWADAESFCTKQVNGGHLVSLESSGEADFVGQLLAQKLKSAKLHVWLGLRAQNKEKQCSLQWSDGSSLSYENWLEEESKKCLGVHLETGFHKWENFYCEQQDPFVCEA chain 2: DCPSDWSSYEGHCYKPFNEPKNWADAENFCTKQHTGGHLVSFQSTEEADFVVKLAFQTFDYGLFWFGLSKLWNQCNWQWSNAAMLKYTDWAEESYCVYFKSTNNKWRSLTCRMLANFVCEFQA |  |  | 10 u/ml | 50 s | 50 s | able to hydrolyze the alpha chain of human fibrinogen; also recorded: has the function of hydrolyzing the alpha subunit of the human fibrinogen | became gradually light | disappeared completely | 5.5
